Test results reported in article doi:10.1101/2021.03.22.436508.

Legend:
[1] = molecular target: Vibrio cholerae ParD2 antitoxin (Vibrio cholerae biovar El Tor strain N16961); experiment: native MS
[2] = molecular target: Vibrio cholerae ParE2 toxin with C-terminal histidine tag (Vibrio cholerae biovar El Tor strain N16961); experiment: native MS
[3] = molecular target: Vibrio cholerae ParD2 antitoxin (Vibrio cholerae biovar El Tor strain N16961); experiment: crystal structure
[4] = molecular target: Vibrio cholerae ParE2 toxin with C-terminal histidine tag (Vibrio cholerae biovar El Tor strain N16961); experiment: SAXS
[5] = molecular target: Vibrio cholerae ParE2 toxin with C-terminal histidine tag (Vibrio cholerae biovar El Tor strain N16961); experiment: SEC-MALS
[6] = molecular target: Vibrio cholerae ParD2 antitoxin (Vibrio cholerae biovar El Tor strain N16961); experiment: crystal structure; remark: listed apart in the source
[7] = molecular target: Vibrio cholerae ParE2 toxin with C-terminal histidine tag (Vibrio cholerae biovar El Tor strain N16961); experiment: crystal structure
[8] = molecular target: Vibrio cholerae ParD2:ParE2 6:2 hetero-octameric complex (Vibrio cholerae biovar El Tor strain N16961); experiment: native MS

Substance	stoichiometry N [1]	stoichiometry N (ParD2 per ParE2 (printed as 6:2)) [2]	stoichiometry N [3]	stoichiometry N (ParD2 per ParE2 (printed as 6:2)) [4]	stoichiometry N (ParD2 per ParE2 (printed as 6:2)) [5]	stoichiometry N [6]	stoichiometry N (ParD2 per ParE2 (printed as 6:2)) [7]	stoichiometry N [8]
Vibrio cholerae ParD2 antitoxin (natural protein)	2	3	6	3	3	2	3	–
Vibrio cholerae ParD2:ParE2 6:2 hetero-octameric complex	–	–	–	–	–	–	–	2
